Measured values from US20120269817A1 (Bayer, published 2012).
Positions count from the first letter of the chain named. Values belong to the binder of their own block, whether it stands above or below them.

What was measured:
[1] = molecular target: T1, BSA (bovine, UniProt P02769 25-607); assay: ELISA
T1 construct: also called bovine serum albumin
In short: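 Fab from E. coli TG1 lysates bound to plates coated with human TFPI, or with mouse TFPI for cross-reactivity, with BSA and lysozyme as negative controls. Detection by HRP-anti-human Fab with AmplexRed/H2O2; signal ≥5-fold over background scored positive.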

[2] = molecular target: T2, human tissue factor pathway inhibitor (TFPI) (human, UniProt P10646 29-304, limits assumed); assay: cell-based or functional assay
T2 sequence (looked up): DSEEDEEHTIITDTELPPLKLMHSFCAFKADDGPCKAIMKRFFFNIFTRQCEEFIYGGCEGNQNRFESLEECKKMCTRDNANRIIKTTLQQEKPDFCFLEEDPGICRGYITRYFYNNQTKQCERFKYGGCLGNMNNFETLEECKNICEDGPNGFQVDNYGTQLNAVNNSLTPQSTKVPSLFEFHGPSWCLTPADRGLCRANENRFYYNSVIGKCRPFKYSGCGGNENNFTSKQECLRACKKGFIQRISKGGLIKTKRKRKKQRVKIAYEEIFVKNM

[3] = molecular target: T2, human tissue factor pathway inhibitor …; assay: ELISA, Fab on coated TFPI
In short: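 Purified Fabs titrated on human or mouse TFPI-coated plates; bound Fab detected with HRP anti-human Fab and AmplexRed/H2O2 to derive EC50. Affinity and kinetics by Biacore: TFPI amine-coupled on CM5 (~300 RU), Fabs in mobile phase at 0.1, 0.4, 1.6, 6.4 and 25 nM.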

[4] = molecular target: T3, mouse tissue factor pathway inhibitor (TFPI) (mouse, UniProt O54819 29-289, limits assumed); assay: ELISA, Fab on coated mouse TFPI
T3 construct: Bought protein; also called mouse TFPI; mTFPI
T3 sequence (looked up): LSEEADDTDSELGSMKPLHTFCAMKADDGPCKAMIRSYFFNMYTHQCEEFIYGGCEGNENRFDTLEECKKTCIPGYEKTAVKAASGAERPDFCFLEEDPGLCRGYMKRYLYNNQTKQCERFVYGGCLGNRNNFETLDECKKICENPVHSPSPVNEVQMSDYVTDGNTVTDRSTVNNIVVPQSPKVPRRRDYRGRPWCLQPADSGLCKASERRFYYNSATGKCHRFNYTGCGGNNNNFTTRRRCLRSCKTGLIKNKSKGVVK
Protocol: To select antibody clones that bind to human TFPI, Fab genes of the phage clones from the second and third round of panning were subcloned into a bacterial expression vector and expressed in E. coli strain TG1. The bacterial lysate was added to the wells of the human TFPI-coated Maxisorp plates. After washing, HRP-conjugated goat anti-human Fab was used as a detection antibody and the plates were developed by adding AmplexRed (Invitrogen) with hydrogen peroxide. A signal of at least five-fold higher than the background was considered as positive. The cross reactivity of the anti-human TFPI antibodies to mouse TFPI was determined by a similar mouse TFPI-binding ELISA. The plates were coated with mouse TFPI (R&D System), BSA and lysozyme. The later two antigens were used as negative controls.

[5] = molecular target: T2, human tissue factor pathway inhibitor …; assay: Biacore, TFPI on CM5 chip, Fab in mobile phase
In short: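 Surface plasmon resonance with human or mouse TFPI amine-coupled to a CM5 chip at approximately 300 RU. Purified Fabs were injected in mobile phase at 0.1, 0.4, 1.6, 6.4 and 25 nM. Kinetics and binding affinity were derived from the sensorgrams.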

[6] = molecular target: T4, human TFPI K1 (human, UniProt P10646 29-107, limits assumed); assay: Western blots and ELISA
T4 construct: domain: K1; also called Kunitz domain 1
T4 sequence (looked up): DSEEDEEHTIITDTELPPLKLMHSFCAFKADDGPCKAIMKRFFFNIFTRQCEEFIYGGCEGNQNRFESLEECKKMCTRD
Protocol: Western blots and ELISA were used to determine which domain(s) of TFPI of the inhibitory antibodies bind. Recombinant full length human TFPI or TFPI domains were used for these studies. ELISA was similar to Example 3. In the Western Blot, human TFPI or domains were run on 4-12% Bis-Tris SDS PAGE running buffer MES (Invitrogen, Carlsbad, Calif.) and then transferred to cellulose membrane. After incubation with inhibitory antibodies for 10 min, the membrane was washed three times using SNAPid system (Millipore, Billerica, Mass.). A HRP conjugated donkey anti-mouse antibody (Pierce, Rockford, Ill.) at 1 to 10,000 dilution was incubated with the membrane for 10 min. After a similar wash step, the membrane was developed using SuperSignal substrate (Pierce, Rockford, Ill.). Whereas the control anti-Kunitz domain 1 antibody binds to full length TFPI, truncated TFPI and domains, inhibitory anti-TFPI antibodies only bind to TFPI containing Kunitz domain 2.

[7] = molecular target: T2, human tissue factor pathway inhibitor …; assay: ELISA, IgG against Fab
[8] = molecular target: T3, mouse tissue factor pathway inhibitor …; assay: ELISA, IgG against Fab
[9] = molecular target: T2, human tissue factor pathway inhibitor …; assay: ELISA, IgG on coated human TFPI
[10] = molecular target: T3, mouse tissue factor pathway inhibitor …; assay: ELISA, IgG on coated mouse TFPI

T1 sequence (P02769 25-607 limits assumed): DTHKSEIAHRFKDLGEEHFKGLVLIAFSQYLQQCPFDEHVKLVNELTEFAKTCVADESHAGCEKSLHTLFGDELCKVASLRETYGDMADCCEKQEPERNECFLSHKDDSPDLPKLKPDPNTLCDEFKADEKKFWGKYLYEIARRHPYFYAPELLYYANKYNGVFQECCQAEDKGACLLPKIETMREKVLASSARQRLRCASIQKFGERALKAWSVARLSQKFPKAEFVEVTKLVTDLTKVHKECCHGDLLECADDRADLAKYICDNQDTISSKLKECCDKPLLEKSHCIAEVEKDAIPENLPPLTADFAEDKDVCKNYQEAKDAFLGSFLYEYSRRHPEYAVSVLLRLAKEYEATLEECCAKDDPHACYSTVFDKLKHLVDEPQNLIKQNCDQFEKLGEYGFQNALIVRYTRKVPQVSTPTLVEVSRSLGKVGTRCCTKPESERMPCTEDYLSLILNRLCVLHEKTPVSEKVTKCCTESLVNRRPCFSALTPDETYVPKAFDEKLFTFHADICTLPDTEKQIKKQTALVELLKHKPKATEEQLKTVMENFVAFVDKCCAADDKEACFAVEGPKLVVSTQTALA

B1: TP-2G7 Fab (Fab, V domains shown)
VH: QVQLVESGGGLVQPGGSLRLSCAASGFTFNSYAMSWVRQAPGKGLEWVSNISSNSSNTYYADSVKGRFTISRDNSKNTLYLQMNSLRAEDTAVYYCARKGGGEHGFFPSDIWGQGTLVTVSS
VL: DIELTQPPSVSVAPGQTARISCSGDNLGTYYVHWYQQKPGQAPVLVIYGDNNRPSGIPERFSGSNSGNTATLTISGTQAEDEADYYCQTYDSNNESIVFGGGTKLTVLG
notes: Human Fab from HuCal Gold, expressed in E. coli TG1
binding result [1]: no binding | % inhibition of hTFPI activity [2]: 55% | dPT in hemoA plasma [2]: 72.2 s | EC50 [3]: 23.5 nM | binding result [4]: no binding | Kd [5]: 26.9 nM

B2: TP-3G1 chimeric IgG (antibody, V domains shown)
VH: QVQLQQSGPGLVKPSQTLSLTCAISGDSVSSNSGGWGWIRQSPGRGLEWLGLIYYRSKWYNAYAVSVKSRITINPDTSKNQFSLQLNSVTPEDTAVYYCARYLGSNFYVYSDVWGQGTLVTVSS
VL: DIQMTQSPSSLSASVGDRVTITCRASQGISSYLHWYQQKPGKAPKLLIYGASTLQSGVPSRFSGSGSGTDFTLTISSLQPEDFATYYCQQQNGYPFTFGQGTKVEIKR
notes: Chimeric IgG: human variable regions on mouse constant regions, murine IgG1 isotype, made in HKB11 cells
binding result [6]: no binding

B3: 2G6-IgG (antibody, V domains shown)
VH: QVQLQQSGPGLVKPSQTLSLTCAISGDSVSSSSAAWSWIRQSPGRGLEWLGIIYYRSKWYNDYAVSVKSRITINPDTSKNQFSLQLNSVTPEDTAVYYCARHSMVGFDVWGQGTLVTVSS
VL: DIVLTQSPATLSLSPGERATLSCRASQYVTSSYLAWYQQKPGQAPRLLIYGSSRATGVPARFSGSGSGTDFTLTISSLEPEDFATYYCQQYSSSPITFGQGTKVEIKR
notes: Chimeric IgG: human variable regions on mouse constant regions, murine IgG1 isotype, made in HKB11 cells; also called IgG-2G6; TP-2G6 chimeric IgG
fold change of EC50 against 2G6-Fab [7]: 2 fold | fold change of EC50 against 2G6-Fab [8]: 10 fold | binding result [6]: no binding | EC50 [9]: 0.22 nM | EC50 [10]: 0.51 nM

B4: TP-3C2 chimeric IgG (antibody, V domains shown)
VH: B3 VH with I52M, D62H, H102G, S103G, M104S, V105G, G106V, F107M
VL: DIQMTQSPSSLSASVGDRVTITCRASQSITNYLNWYQQKPGKAPKLLIYDVSNLQSGVPSRFSGSGSGTDFTLTISSLQPEDFAVYYCQQYSGYPLTFGQGTKVEIKR
notes: as for B2
binding result [6]: no binding

B5: TP-4G8 Fab (Fab, V domains shown)
VH: QVQLVESGGGLVQPGGSLRLSCAASGFTFSTYAMHWVRQAPGKGLEWVSTISGYGSFTYYADSVKGRFTISRDNSKNTLYLQMNSLRAEDTAVYYCARNGRKYGQMDNWGQGTLVTVSS
VL: DIELTQPPSVSVAPGQTARISCSGDKLGSKSVHWYQQKPGQAPVLVIYRDTDRPSGIPERFSGSNSGNTATLTISGTQAEDEADYYCQTYDYILNVFGGGTKLTVLG
notes: as for B1
binding result [1]: no binding | % inhibition of hTFPI activity [2]: 39% | dPT in hemoA plasma [2]: 73.9 s | EC50 [3]: 847 nM | binding result [4]: no binding | Kd [5]: 25.2 nM

Next, values leading:

binding result [1]: no binding | % inhibition of hTFPI activity [2]: 28% | dPT in hemoA plasma [2]: 76.5 s | EC50 [3]: 72.5 nM | binding result [4]: no binding | Kd [5]: 32.2 nM
B6: TP-4H8 Fab (Fab, V domains shown)
VH: QVQLVESGGGLVQPGGSLRLSCAASGFTFSDHAMHWVRQAPGKGLEWVSVIEYSGSKTNYADSVKGRFTISRDNSKNTLYLQMNSLRAEDTAVYYCARGDYYPYLVFAIWGQGTLVTVSS
VL: DIELTQPPSVSVAPGQTARISCSGDSIGKKYVHWYQQKPGQAPVLVIYGDNNRPSGIPERFSGSNSGNTATLTISGTQAEDEADYYCSTADSVITYKNVFGGGTKLTVLG
notes: as for B1

binding result [6]: no binding
B7: TP-4B7 chimeric IgG (antibody, V domains shown)
VH: QVQLQQSGPGLVKPSQTLSLTCAISGDSVSSNSAAWSWIRQSPGRGLEWLGIIYKRSKWYNDYAVSVKSRITINPDTSKNQFSLQLNSVTPEDTAVYYCARWHSDKHWGFDYWGQGTLVTVSS
VL: DIVMTQSPLSLPVTPGEPASISCRSSQSLVFSDGNTYLNWYLQKPGQSPQLLIYKGSNRASGVPDRFSGSGSGTDFTLKISRVEAEDVGVYYCQQYDSYPLTFGQGTKVEIKR
notes: as for B2

binding result [1]: no binding | % inhibition of hTFPI activity [2]: 21% | dPT in hemoA plasma [2]: 70.9 s | EC50 [3]: 0.4 nM | binding result [4]: no binding | Kd [5]: 2.64 nM
B8: TP-2C1 Fab (Fab, V domains shown)
VH: QVQLVESGGGLVQPGGSLRLSCAASGFTFSPYVMSWVRQAPGKGLEWVSSISSSSSNTYYADSVKGRFTISRDNSKNTLYLQMNSLRAEDTAVYYCARGDSYMYDVWGQGTLVTVSS
VL: DIELTQPPSVSVAPGQTARISCSGDSIGSYYAHWYQQKPGQAPVLVIYYDSKRPSGIPERFSGSNSGNTATLTISGTQAEDEADYYCQAYTGQSISRVFGGGTKLTVLG
notes: as for B1

binding result [1]: no binding | % inhibition of hTFPI activity [2]: 29% | dPT in hemoA plasma [2]: 71.9 s | EC50 [3]: 36.9 nM | binding result [4]: no binding | Kd [5]: 35.9 nM
B9: TP-4E8 Fab (Fab, V domains shown)
VH: QVQLVESGGGLVQPGGSLRLSCAASGFTFNDYAMSWVRQAPGKGLEWVSLIESVSSSTYYADSVKGRFTISRDNSKNTLYLQMNSLRAEDTAVYYCARTIGVLWDDVWGQGTLVTVSS
VL: DIELTQPPSVSVAPGQTARISCSGDALGSKYVSWYQQKPGQAPVLVIYGDNKRPSGIPERFSGSNSGNTATLTISGTQAEDEADYYCQSYTYSLNQVFGGGTKLTVLG
notes: as for B1
